In patent US20240066131A1 (Protagonist Therapeutics, Inc., priority 2020, published 2024):
Values belong to the binder of their own block, whether it stands above or below them. Starred links: 1 amine or outer side, 2 acyl side, 3 side chain; linkers in the order of their positions; H or OH if unused. Non-standard residues stand in square brackets, D forms with d. Groups on a side chain read outwards from the residue. No end group written: not given here. *: point of attachment. bhGly(phenylbutyl) = 3-((4-phenylbutyl)amino)propanoic acid, O=C(CCN(CCCCc1ccccc1)[*:1])[*:2]; Carnitine = carnitine group on the Lys side chain, C[N+](C)(C)C[C@H](O)CC(=O)*; C18 diacid = O=C(O)CCCCCCCCCCCCCCCCC(=O)*; PeptoidIsovaleric Acid = not defined here; Dip = N[C@H](C(=O)O)C(c1ccccc1)c1ccccc1; γGlu = O=C(O)[C@H](CCC(=O)[*:2])N[*:1]; NH(4-phenylbutyl) = c1ccc(CCCCN*)cc1; Palmitoyl = CCCCCCCCCCCCCCCC(=O)*; β3hF = N[C@H](CC(=O)O)Cc1ccccc1; NMeK = CN[C@@H](CCCCN)C(=O)O; Isovaleryl = CC(C)CC(=O)*; Orn = NCCC[C@H](N)C(=O)O; AEEA = NCCOCCOCC(=O)O; Ahx = NCCCCCC(=O)O

Assays:
Test in all cases: cell-based or functional assay
[1] = target: T1, human ferroportin (SLC40A1) fused in frame with GFP, stably expressed in HEK293 cells (human, UniProt Q9NP59 1-571)
T1 sequence (looked up): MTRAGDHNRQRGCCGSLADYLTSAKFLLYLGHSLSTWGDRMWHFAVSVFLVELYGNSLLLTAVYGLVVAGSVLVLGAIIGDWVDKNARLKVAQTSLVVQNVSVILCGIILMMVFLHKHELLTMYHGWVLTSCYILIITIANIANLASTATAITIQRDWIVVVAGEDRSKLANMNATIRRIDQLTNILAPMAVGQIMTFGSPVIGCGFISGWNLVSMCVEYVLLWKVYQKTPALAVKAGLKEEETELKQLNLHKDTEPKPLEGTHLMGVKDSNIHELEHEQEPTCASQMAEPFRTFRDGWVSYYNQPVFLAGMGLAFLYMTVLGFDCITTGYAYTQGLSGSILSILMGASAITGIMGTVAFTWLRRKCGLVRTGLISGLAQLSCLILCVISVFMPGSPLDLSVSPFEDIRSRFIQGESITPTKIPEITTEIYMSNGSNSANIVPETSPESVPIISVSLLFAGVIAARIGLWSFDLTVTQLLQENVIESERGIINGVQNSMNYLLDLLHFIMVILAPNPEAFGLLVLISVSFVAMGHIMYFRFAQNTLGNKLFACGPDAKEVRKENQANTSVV

[2] = target: T1, human ferroportin (SLC40A1) fused in …; remark: listed apart in the source
[3] = target: T1, human ferroportin (SLC40A1) fused in …; remark: listed apart in the source
[4] = target: T2, ferroportin endogenously expressed on T47D cells (HTB 133, ATCC) (human, UniProt Q9NP59 1-571)
T2 sequence (looked up): T1 sequence (looked up)

B1: Isovaleric Acid-E-T-H-A-P-A-I-[(D)Lys]-[bhPhe]-[Lys(Ahx_Palm)]-[(D)Lys]-A-NH2 (peptide)
peptide: Isovaleryl-ETHAPAI[dK][β3hF]K([Ahx-Palmitoyl])[dK]A-NH2
SMILES: CCCCCCCCCCCCCCCC(=O)NCCCCCC(=O)NCCCC[C@H](NC(=O)C[C@H](Cc1ccccc1)NC(=O)[C@@H](CCCCN)NC(=O)[C@@H](NC(=O)[C@H](C)NC(=O)[C@@H]1CCCN1C(=O)[C@H](C)NC(=O)[C@H](Cc1c[nH]cn1)NC(=O)[C@@H](NC(=O)[C@H](CCC(=O)O)NC(=O)CC(C)C)[C@@H](C)O)[C@@H](C)CC)C(=O)N[C@H](CCCCN)C(=O)N[C@@H](C)C(N)=O
FPN IC50 [1]: > 3000 nM

B2: [Isovaleric Acid]-K-T-H-[Dpa]-P-A-[Lys(Carnitine)]-E-[N-MeLys(Ahx_Palm)]-[Phenylbutyl Amine] (peptide)
peptide: Isovaleryl-KTH[Dip]PAK(Carnitine)E[NMeK]([Ahx-Palmitoyl])-{NH(4-phenylbutyl)}
SMILES: CCCCCCCCCCCCCCCC(=O)NCCCCCC(=O)NCCCC[C@@H](C(=O)NCCCCc1ccccc1)N(C)C(=O)[C@H](CCC(=O)O)NC(=O)[C@H](CCCCNC(=O)C[C@@H](O)C[N+](C)(C)C)NC(=O)[C@H](C)NC(=O)[C@@H]1CCCN1C(=O)[C@@H](NC(=O)[C@H](Cc1c[nH]cn1)NC(=O)[C@@H](NC(=O)[C@H](CCCCN)NC(=O)CC(C)C)[C@@H](C)O)C(c1ccccc1)c1ccccc1
IC50: FPN internalisation [2]: 5.9 nM

Binder: XETHXPXX (N-term Isovaleric Acid; Dpa4; Lys(Ahx_Palm)6; C-term Phenylbutyl Amine) [[Isovaleric Acid]-E-T-H-[Dpa]-P-[Lys(Ahx_Palm)]-[Phenylbutyl Amine]]
IC50: FPN internalisation [2]: 5.41 nM

Binder: Isovaleryl-ETH[Dip]PAIK([Ahx-Palmitoyl])[dK](Gal)-NH2 [Isovaleric Acid-E-T-H-[Dpa]-P-A-I-[Lys(Ahx_Palm)]-d[Lys(Gal-NH2]
FPN IC50 [1]: 181 nM

Binder: Isovaleryl-ETH[Dip]P[dK](Gal)IK([Ahx-Palmitoyl])[β3hF]-NH2 [Isovaleric Acid-E-T-H-[Dpa]-P-d[Lys(Gal)]-I-[Lys(Ahx_Palm)]-[bhPhe]-NH2]
FPN IC50 [1]: 246 nM

Binder: {PeptoidIsovaleric Acid}-ETH[Dip]PAIK([Ahx-Palmitoyl])[β3hF]-NH2 (reading uncertain) [PeptoidIsovaleric Acid-E-T-H-[Dpa]-P-A-I-[Lys(Ahx_Palm)]-[bhPhe]-NH2]
FPN IC50 [1]: 1120 nM

Binder: Isovaleryl-KTH[Dip]PAIK([Ahx-Palmitoyl])[β3hF] [Isovaleric Acid-K-T-H-[Dpa]-P-A-I-[Lys(Ahx_Palm)]-[bhPhe]]
FPN IC50 [1]: 126 nM

B4: [Isovaleric Acid]-E-T-H-[Dpa]-P-[DMG_N_2ae]-[(D)Lys]-[bhPhe]-[Lys(Ahx_Palm)]-NH2 (peptide)
peptide: XETHXPXXXX
modifications: N-term Isovaleric Acid; Dpa4; DMG_N_2ae6; (D)Lys7; bhPhe8; Lys(Ahx_Palm)9; C-term NH2
IC50: FPN internalisation [2]: 35.6 nM

Results, then the binder that gave them:

IC50: FPN internalisation [2]: 201 nM
Binder: Isovaleryl-[Orn]TH[Dip]PAI[NMeK]([Ahx-Palmitoyl])[bhGly(phenylbutyl)] [[Isovaleric Acid]-[Orn]-T-H-[Dpa]-P-A-I-[N-MeLys(Ahx_Palm)]-[bhGly(phenylbutyl)]]

FPN EC50 [3]: 177 nM
T47D MSA IC50 [4]: 11.4 nM
B3: Isovaleric Acid-E-T-H-F-P-A-I-[Lys(Ahx_Palm)]-F-E-P-R-S-K-G-A-K-NH2 (peptide)
peptide: Isovaleryl-ETHFPAIK([Ahx-Palmitoyl])FEPRSKGAK-NH2
SMILES: CCCCCCCCCCCCCCCC(=O)NCCCCCC(=O)NCCCC[C@H](NC(=O)[C@@H](NC(=O)[C@H](C)NC(=O)[C@@H]1CCCN1C(=O)[C@H](Cc1ccccc1)NC(=O)[C@H](Cc1c[nH]cn1)NC(=O)[C@@H](NC(=O)[C@H](CCC(=O)O)NC(=O)CC(C)C)[C@@H](C)O)[C@@H](C)CC)C(=O)N[C@@H](Cc1ccccc1)C(=O)N[C@@H](CCC(=O)O)C(=O)N1CCC[C@H]1C(=O)N[C@@H](CCCNC(=N)N)C(=O)N[C@@H](CO)C(=O)N[C@@H](CCCCN)C(=O)NCC(=O)N[C@@H](C)C(=O)N[C@@H](CCCCN)C(N)=O

FPN EC50 [3]: 2360 nM
T47D MSA IC50 [4]: 3440 nM
Binder: Isovaleryl-ETHFPAIK([AEEA-AEEA-γGlu-C18 diacid])FEPRSKGAK-NH2 [Isovaleric Acid-E-T-H-F-P-A-I-[Lys(1PEG2_1PEG2_IsoGlu_C18_Diacid)]-F-E-P-R-S-K-G-A-K-NH2]

FPN EC50 [3]: 280 nM
T47D MSA IC50 [4]: 289 nM
Binder: Isovaleryl-ETHFPAIK([γGlu-Palmitoyl])FEPRSKGAK-NH2 [Isovaleric Acid-E-T-H-F-P-A-I-[Lys(IsoGlu_Palm)]-F-E-P-R-S-K-G-A-K-NH2]

FPN IC50 [1]: > 3000 nM
Binder: Isovaleryl-[dK](Gal)TH[Dip]PAIK([Ahx-Palmitoyl])[β3hF]-NH2 [Isovaleric Acid-d[Lys(Gal-T-H-[Dpa]-P-A-I-[Lys(Ahx_Palm)]-[bhPhe]-NH2]
